What was measured:
[1] = biological target: T1, membrane-type IL-6R on cells (U266B1, TF-1, Hep3B) (UniProt P08887 20-468, limits assumed); test: cell-based or functional assay
T1 sequence (looked up): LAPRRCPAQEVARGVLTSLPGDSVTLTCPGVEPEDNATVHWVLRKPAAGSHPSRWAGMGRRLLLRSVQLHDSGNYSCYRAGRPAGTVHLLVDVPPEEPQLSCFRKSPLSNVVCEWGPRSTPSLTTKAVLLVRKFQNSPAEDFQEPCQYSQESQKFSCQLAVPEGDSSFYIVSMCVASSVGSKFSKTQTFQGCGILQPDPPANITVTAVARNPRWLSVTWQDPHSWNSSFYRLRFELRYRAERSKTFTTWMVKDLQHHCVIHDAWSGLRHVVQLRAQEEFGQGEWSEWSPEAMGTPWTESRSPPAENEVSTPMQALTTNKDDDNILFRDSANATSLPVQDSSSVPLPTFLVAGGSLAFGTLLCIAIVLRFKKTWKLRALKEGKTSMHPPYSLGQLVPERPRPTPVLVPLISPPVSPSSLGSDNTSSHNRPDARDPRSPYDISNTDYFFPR

[2] = biological target: T2, hIL-6R.BP15 (human interleukin-6 receptor with BP15 tag, biotinylated) (human, UniProt P08887 20-365, site-directed biotinylation on the BP15 tag); test: blocking ELISA: coated IL-6.Fc, 1 ng/ul biotinylated IL-6R.BP15 with serially diluted antibody, HRP-streptavidin, OD450; blocked ligand IL-6.Fc; unit from the abscissa
T2 sequence: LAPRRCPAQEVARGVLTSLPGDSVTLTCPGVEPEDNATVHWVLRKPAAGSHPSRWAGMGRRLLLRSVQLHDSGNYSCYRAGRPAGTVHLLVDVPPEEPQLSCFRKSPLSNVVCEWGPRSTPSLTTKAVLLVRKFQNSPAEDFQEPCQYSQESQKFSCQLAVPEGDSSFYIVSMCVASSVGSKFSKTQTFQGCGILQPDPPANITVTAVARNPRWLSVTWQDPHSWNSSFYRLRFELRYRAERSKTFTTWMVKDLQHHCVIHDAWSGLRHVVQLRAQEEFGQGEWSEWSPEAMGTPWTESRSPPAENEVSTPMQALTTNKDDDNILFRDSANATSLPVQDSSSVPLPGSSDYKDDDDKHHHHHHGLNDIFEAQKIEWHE
Protocol: The formation of IL-6R/IL-6 complex can be blocked by the binding of IL-6R antibody to IL-6R, indicating the downstream cell signaling could be blocked by preventing IL-6/IL-6Rcomplex formationon the cell membrane. All of the expressed the purified antibodies were tested for their abilities to block the binding between IL-6 and IL-6R by ELISA. The procedures was descripted as follows:
The plates were coated with100 μl of 2 ng/μl IL-6.Fc at 4° C. overnight, and blocked with 2% skim milk at 37° C. for 1 hour. The plates were then washed, incubated with 100 μl of serial diluted testing samples with and 1 ng/μl IL-6R.BP15. After 1 hourincubation at 37° C,. the plates were washed andHRP-streptavidin (Jackson, 016-030-084) diluted at 1:4000 was added to the plate followed by incubation. After wash and 100 μl TMB develoment at room temperature for 5 min. 100 μl of 1M H₂SO₄ was added to terminate the reaction. The OD₄₅₀ values were read.

[3] = biological target: T2, hIL-6R.BP15 (human interleukin-6 …); test: blocking ELISA: coated gp130, IL-6.his and IL-6R.BP15 (0.06 ug/ml) with serially diluted antibody, HRP-streptavidin, OD450; blocked: binding of the IL-6/IL-6R complex to gp130; unit from the abscissa
Protocol: The complex of IL-6 and IL-6R can bind to GP130. The assay will evaluate if the selected antibodies were able to block the formation of IL-6/IL-6R/gp130 complex by binding to IL-6R. The plates were coated with 1 μg/ml gp130 (diluted in PBS) at 4° C. overnight. The coating solution was discarded, and plates were blocked with 5% skim milk in PBS at 37° C. for 2-3h. After blocking, the plates were washed 3 times with washing buffer PBST (0.1% Tween-20 in PBS).
IL-6.his and IL-6R.BP15 were diluted with 1% BSA in PBS to a concentration of 0.06 μg/ml. Starting at 50 ug/ml, IL-6R antibodies were 1:3 serially diluted in dilution buffer and Both testing antibody samples and IL-6/IL-6R complex were added to the plate followed by lh incubation at 37° C. After that, the plates were washed for 3 times with washing buffer PBST (0.1% Tween-20 in PBS).
1:2000 diluted Secondary antibody HRP streptavidin (Jackson, 016-030-084) was added to the plate followed by 1 h incubation at 37° C.After incubation and wash,. TMB was used for development. OD₄₅₀ values were read.

B1: Tocilizumab (antibody, human IgG1, kappa, V domains shown)
VH: EVQLQESGPGLVRPSQTLSLTCTVSGYSITSDHAWSWVRQPPGRGLEWIGYISYSGITTYNPSLKSRVTMLRDTSKNQFSLRLSSVTAADTAVYYCARSLARTTAMDYWGQGSLVTVSS
VL: DIQMTQSPSSLSASVGDRVTITCRASQDISSYLNWYQQKPGKAPKLLIYYTSRLHSGVPSRFSGSGSGTDFTFTISSLQPEDIATYYCQQGNTLPYTFGQGTKVEIKR
notes: Positive control; also called anti-IL-6R humanized mAb tocilizumab
With B1 the “Relative expression level of hepcidin mRNA (fold) in Hep3B cells with 5 nM antibody and 10 ng/ml IL-6 (blank 1; IL-6 only 2.783)” value [1] was 1.87 fold, the IC50 [2] was 0.466 µg/mL and the IC50 [3] was 0.49 µg/mL.

B2: Sari (antibody, human IgG1, kappa, V domains shown)
VH: EVQLVESGGGLVQPGRSLRLSCAASRFTFDDYAMHWVRQAPGKGLEWVSGISWNSGRIGYADSVKGRFTISRDNAENSLFLQMNGLRAEDTALYYCAKGRDSFDIWGQGTMVTVSS
VL: DIQMTQSPSSVSASVGDRVTITCRASQGISSWLAWYQQKPGKAPKLLIYGASSLESGVPSRFSGSGSGTDFTLTISSLQPEDFASYYCQQANSFPYTFGQGTKLEIKR
notes: Positive control antibody; also called Sarilumab; anti-IL-6R antibody sarilumab (Regeneron)
B2 showed an IC50 [2] of 0.5 µg/mL and an IC50 [3] of 0.0474 µg/mL.
